Test results published in patent US4851521A, “Esters of hyaluronic acid” (priority 1985, dated 1989).

Experiments:
[1] = test system: dextran-induced aseptic (exudative) phlogosis in rabbit eye; assay: Anti-inflammatory activity: dextran-induced aseptic (exudative) phlogosis in rabbit eye; type: in vivo; conditions: for eyes without signs of phlogosis out of the total number of eyes treated: 3 drops every 6 hours, 4 treated eyes
Description: 9 hyaluronic esters of cortisone, hydrocortisone and fluorocortisone (9 fluorohydrocortisone) identified by the code names HYC1-HYC9 were tested. Table 1 describes these compounds and gives the percentages of the number of carboxylic groups of HY which are esterified with the above corticosteroids, and where applicable the percentage esterified with simple aliphatic alcohols and those salified with alkaline metals (Na):
Aseptic (exudative) phlogosis was induced in 48 rabbits by intraocular injection of dextran (1% in saline, 0.1 ml). The various products were administered by instillation in the right eye (RE) of the rabbits, while in the left eye (LE) only vehicle was instilled.
The treament (3 drops every 6 hours) was begun immediately after the injection of dextran and was continued for 16 days.
Both eyes of each rabbit were observed through a slit lamp. In particular the following were examined: the state of the conjunctiva and corneal epithelium, the anterior chamber (presence of Tyndall effect), state of the iris and of the posterior segment of the eye. With a Goldmann lens, the state of the back of the eye was examined. The presence of signs of inflammation (hyperemia, exudate, cloudiness of the liquids, etc.) was recorded.
Values are expressed as percentages (number of eyes without signs of phlogosis out of the total number of eyes treated). In brackets are the number of treated eyes.

[2] = Absorption and bioavailability: plasma levels of hydrocortisone in rats; type: in vivo, male Sprague-Dawley rats; conditions: s.c.; for average plasmatic level of hydrocortisone: average of 4 values; for Ka: HYC 6.5 mg/kg
Description: Male Sprague-Dawley rats, with a body weight of 250-350 gr were used, obtained from Charles River-Calco (Como), fed ad libitum with water and compound feed in pellets, with the code name of 4RF 21, produced by "Italiana Mangimi", licensee of Charles River.
Hydrocortisone was administered in the form of sodium hemisuccinate salt at the dose of 1.34 mg/kg (corresponding to 1 mg/kg of hydrocortisone base) by general intravenous route and at the dose of 1.34 mg/kg and 2.68 mg/ kg (corresponding to 2 mg/ kg of hydrocortisone base) by subcutaneouos route (the i.v. route was considered in order to determine the pharmacokinetic parameters which serve as a comparison for the evaluation of absorption of any other administration route).
The three HYC derivatives were administered by subcutaneous route at the dose of 6.5 and 13 mg/kg (doses corresponding to about 1 and 2 mg/kg in hydrocortisone base). […] All the compounds were injected at a constant volume of 1 ml/kg.
After administration, 0.3 ml of blood was drawn from each animal by cardiac puncture in the presence of anticoagulant (sodium heparin).
Blood drawing times were as follows: *15 mins, 30 mins, 60 mins, 120 mins, 180 min, 300 mins, 360 mins, 420 mins, 480 mins (*limited to the intraveneous route).
The hydrocortisone was dosed by radioimmunoassay method (Cortisolo Kit, Biodata, cod. 10394) using iodate tracing. […] The linearity of the method comes between 1 and 1000 ng/ml. The observation limit is 1 ng/ml.
The dosage of the cortisolemia in the rat is not influenced either by the base levels or by the circadian rhythms of this hormone, as the metabolic pattern of the endogenous glucocorticoid hormones in the rat, leads to the production of corticosterone and not cortisol (see E. L. Green: Biology of the laboratory mouse.)
In Table 3 are reported the results of the average plasma levels of hydrocortisone, after i.v. and s.c. injection (1 and 2 mg/kg). […] In Table 4 are reported the pharmacokinetic parameters of cortisol calculated graphically from the plasmatic decline curves. In Table 3 are reported the average levels of cortisol after subcutaneous administration of the three HYC derivatives at doses of 6.5 and 13 mg/kg (corresponding to about 1 and 2 mg/kg in hydrocortisone base). In Table 4 are reported the pharmacokinetic parameters relative to cortisol calculated graphically with the method of residues from the plasma absorption curve of the three HYC products.

[3] = test system: horny layer (skin); assay: Skin hydration after topical application (corneometer); type: in vivo, human (healthy volunteers); conditions: 0.2% in ointment, single administration, average for 10 subjects
Description: In order to establish a comparison between hyaluronic acid and its derivatives of the present invention, some experiments were carried out to instrumentally evaluate, after topical application, the hydrating properties of the compounds in examination. All the compounds were […] concentration of 0.2% in an ointment the composition of which was as follows: […] Each volunteer was treated (single administration) with all the formulations in examination, which were applied (1 gr./ointment) to the inside surface of each forearm, distinguishing with a dermographic pencil the application zone (about 25 cm^2) of each product and standardizing the procedure as far as possible. To the right forearm were applied the compounds known as […]9, while to the left were applied HYAFF10, placebo and hyaluronic acid. […] Most particularly, the dielectric strength of the water was measured (in 0.8 seconds), after application of the sensor (condenser) to the skin surface. […] Registrations were carried out in constant humidity conditions.

[4] = 10 days from start of phlogosis
[5] = 12 days from start of phlogosis
[6] = 14 days from start of phlogosis
[7] = 16 days from start of phlogosis

Substance | eyes without signs of phlogosis out of the total number of eyes treated ([1]; 2 days from start of phlogosis) [%] | eyes without signs of phlogosis out of the total number of eyes treated ([1]; 4 days from start of phlogosis) [%] | eyes without signs of phlogosis out of the total number of eyes treated ([1]; 6 days from start of phlogosis) [%] | eyes without signs of phlogosis out of the total number of eyes treated ([1]; 8 days from start of phlogosis) [%] | eyes without signs of phlogosis out of the total number of eyes treated [1, 4] [%] | eyes without signs of phlogosis out of the total number of eyes treated [1, 5] [%] | eyes without signs of phlogosis out of the total number of eyes treated [1, 6] [%] | eyes without signs of phlogosis out of the total number of eyes treated [1, 7] [%] | average plasmatic level of hydrocortisone ([2]; 6.5 mg/kg, 30 min) [ng/mL] | average plasmatic level of hydrocortisone ([2]; 6.5 mg/kg, 60 min) [ng/mL] | average plasmatic level of hydrocortisone ([2]; 6.5 mg/kg, 120 min) [ng/mL] | average plasmatic level of hydrocortisone ([2]; 6.5 mg/kg, 180 min) [ng/mL] | average plasmatic level of hydrocortisone ([2]; 6.5 mg/kg, 360 min) [ng/mL] | average plasmatic level of hydrocortisone ([2]; 6.5 mg/kg, 420 min) [ng/mL] | average plasmatic level of hydrocortisone ([2]; 6.5 mg/kg, 480 min) [ng/mL] | average plasmatic level of hydrocortisone ([2]; 13 mg/kg, 30 min) [ng/mL] | average plasmatic level of hydrocortisone ([2]; 13 mg/kg, 60 min) [ng/mL] | average plasmatic level of hydrocortisone ([2]; 13 mg/kg, 120 min) [ng/mL] | average plasmatic level of hydrocortisone ([2]; 13 mg/kg, 180 min) [ng/mL] | average plasmatic level of hydrocortisone ([2]; 13 mg/kg, 300 min) [ng/mL] | other results
(mixed) ethanol and hydrocortisone ester (C21) of hyaluronic acid (HY) [HYC5] | 0.0 | 0.0 | 25.0 | 50.0 | 50.0 | 100.0 | 100.0 | 100.0 | 33.41 | 49.52 | 60.52 | 61.17 | 42.44 | 30.43 | 25.85 | 26.55 | 38.77 | 41.56 | 44.81 | 32.51 | antiinflammatory activity (in words) ([1]; compared with the corresponding cortisones): most efficient of these derivatives; average plasmatic level of hydrocortisone ([2]; 13 mg/kg, 360 min): 31.92 ng/mL; average plasmatic level of hydrocortisone ([2]; 13 mg/kg, 420 min): 26.17 ng/mL; average plasmatic level of hydrocortisone ([2]; 13 mg/kg, 480 min): 22.54 ng/mL; Ka [2]: 0.65 h⁻¹
(partial and mixed) ethanol and hydrocortisone ester (LC21) of hyaluronic acid (HY) [HYC8] | 0.0 | 0.0 | 0.0 | 25.0 | 50.0 | 100.0 | 100.0 | 100.0 | 33.75 | 45.23 | 44.75 | 41.80 | 26.10 | 20.50 | 17.60 | 34.62 | 51.69 | 108.01 | 76.64 | 54.66 | average plasmatic level of hydrocortisone ([2]; 6.5 mg/kg, 300 min): 30.00 ng/mL; average plasmatic level of hydrocortisone ([2]; 13 mg/kg, 360 min): 47.17 ng/mL; average plasmatic level of hydrocortisone ([2]; 13 mg/kg, 420 min): 42.60 ng/mL; average plasmatic level of hydrocortisone ([2]; 13 mg/kg, 480 min): 37.03 ng/mL; Ka [2]: 0.94 h⁻¹
(partial) butyl ester of hyaluronic acid (HY) [HYAFF10] | – | – | – | – | – | – | – | – | – | – | – | – | – | – | – | – | – | – | – | – | x Δ% degree of hydration of the corneal layer, 1st hr [3]: 68.8%; x Δ% degree of hydration of the corneal layer, 3rd hr [3]: 57.0%; x Δ% degree of hydration of the corneal layer, 6th hr [3]: 27.5%; x Δ% degree of hydration of the corneal layer, 24th hr [3]: 8.3%
(partial) hydrocortisone ester (C21) of hyaluronic acid (HY) [HYC2] | 0.0 | 0.0 | 0.0 | 25.0 | 50.0 | 100.0 | 100.0 | 100.0 | 27.02 | 35.67 | 42.32 | 37.35 | 26.96 | 24.24 | 18.92 | 32.32 | 50.51 | 62.42 | 58.44 | 51.68 | average plasmatic level of hydrocortisone ([2]; 6.5 mg/kg, 300 min): 32.27 ng/mL; average plasmatic level of hydrocortisone ([2]; 13 mg/kg, 360 min): 48.17 ng/mL; average plasmatic level of hydrocortisone ([2]; 13 mg/kg, 420 min): 44.67 ng/mL; average plasmatic level of hydrocortisone ([2]; 13 mg/kg, 480 min): 39.41 ng/mL; Ka [2]: 0.86 h⁻¹
HYALURONIC ACID [reference compound] | – | – | – | – | – | – | – | – | – | – | – | – | – | – | – | – | – | – | – | – | x Δ% degree of hydration of the corneal layer, 1st hr [3]: 54.7%; x Δ% degree of hydration of the corneal layer, 3rd hr [3]: 37.6%; x Δ% degree of hydration of the corneal layer, 6th hr [3]: 19.7%; x Δ% degree of hydration of the corneal layer, 24th hr [3]: 5.3%
